Results from patent publication US20110223178A1 (Human Genome Sciences, published 2011).

Tests used:
Chemokine beta-4 (CK-β4) [1] = target: T1, Chemokine beta-4 (CK-β4) (human, UniProt P78556 27-96, 125I label in the CCR6 membrane binding assay (Example 5)); assay: inhibition of 125I-CK-β4 binding to CCR6 membranes by IgG1, Expt 1
T1 construct: also called CCL20; MIP-3α
Procedure: (§1) The ability of anti-CK-β4 antibodies of the invention to inhibit the binding of CK-β4 to CCR6 may be tested in the following assay. This assay is performed in 96-well plates and each sample is tested in triplicate. A 1:3 serial dilution of anti-CK-β4 antibody is made starting with 200 nM solution of anti-CK-β4 antibody in binding buffer (50 mM HEPES, pH7.0, 5 mM MgCl₂, 1 mM CaCl₂, 0.5% protease free BSA, 0.033% CHAPS, 0.05% Tween 20, 0.05% sodium azide). To fifty microliters of each dilution of antibody are added 25 microliters of CCR6 membranes (40 micrograms/ml in binding buffer; available from Upstate Biotechnology, Charlottesville, Va. Catalog number 50-139M.) Lastly 25 microliters of ¹²⁵I-CK-β4 (0.8 nM in binding buffer) are added to the wells containing the mixture of antibody and membranes, making for a 100 microliter reaction volume. Total binding is measured using 50 microliters of binding buffer in lieu of 50 microliters of antibody dilution.
(§2) The reaction is incubated for 3 hours at room temperature. The plates are harvested in a Tomtec Cell Harvester. The reaction is washed through a filtermat B (Perkin Elmer Life Sciences, Inc. Boston, Mass. product Number 1450-521) presoaked in 0.3% polyethylamine using an ice cold wash buffer (25 mM Hepes, 5 mM MgCl₂, 1 mM CaCl₂, 0.5M NaCl, and 0.05% Tween 20). The filter is then dried and radioactivity bound to the filter is measured using a Wallac MicroBeta Trilux (Perkin Elmer Life Sciences, Inc.).

Chemokine beta-4 (CK-β4) [2] = target: T1, Chemokine beta-4 (CK-β4); assay: inhibition of 125I-CK-β4 binding to CCR6 membranes by IgG1, Expt 2
Procedure: as §1, §2

Chemokine beta-4 (CK-β4) [3] = target: T1, Chemokine beta-4 (CK-β4); assay: inhibition of 125I-CK-β4 binding to CCR6 membranes by IgG1, Expt 3
Procedure: as §1, §2

T1 sequence (P78556 27-96 limits assumed): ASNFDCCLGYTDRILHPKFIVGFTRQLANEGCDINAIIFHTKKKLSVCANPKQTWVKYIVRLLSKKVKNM

| Binder | EC50 (Chemokine beta-4 (CK-β4) [1]) [nM] | EC50 (Chemokine beta-4 (CK-β4) [2]) [nM] | EC50 (Chemokine beta-4 (CK-β4) [3]) [nM] |
| --- | --- | --- | --- |
| IgG1 antibody comprising the VH and VL domains of scFv F002G03 (antibody, V domains shown, Whole IgG1) VH: QVQLVQSGAEVKKPGSSVKVSCKASGGTFNRYAISWVRQAPGQGLEWMGGIIPMFATPIYSQKFQDRVTITADESTSTAYMELSSLRSEDTAVYYCARDRTDYYDTDGYQSPDSWGKGTLVTVSS VL: DIQMTQSPSTLSASIGDRVTITCRASQGINNYLAWYQQKPGRAPKLLIYAASSLQSGVPSRFSGSGSGTDFTLTISSLQPEDFATYYCLQDSDYPLTFGGGTKLEIKR | 4.1 |  |  |
| IgG1 antibody comprising the VH and VL domains of scFv F076F10 (antibody, V domains shown, Whole IgG1; also called F0076F10) VH: EVQLVQSGAEVKKPGSSVKVFCKTSGGTFSSYAFGWVRQRPGQGLEWMGGIIPNFDAANYAQKFQDTVAFTADTSTNTLYLELSSLTSDDTAVYYCAREVGVHASGLGAFDIWGRGTLVTVSS VL: QSVLTQPPSVSGAPRQRVTISCSGSSSNIGDNVVNWYQQLPGKAPKLLIYYDDLLPSGVSDRFSGSKSGTSASLAISGLQSEDEADYFCAAWDDSLDAYVFGTRTKVTVLG |  | 0.49 |  |
| IgG1 antibody comprising the VH and VL domains of scFv F002C08 (antibody, V domains shown, IgG1) VH: EVQLVESGAEVKKPGSSVKVSCKASGGTFSSYAISWVRQAPGQGLEWMGGIIPIFGTANYAQKFQGRVTITADESTSTAYMELSSLGSEDTAVYYCARESLTGDSELDLWGKGTLVTVSS VL: QSVLTQPPSVSAAPGQKVTISCSGSTSNIGNNYVSWYQQHPGKAPKLMIYDVSKRPSGVPDRFSGSKSGNSASLDISGLQSEDEADYYCAAWDDSLSEFLFGTGTKLTVLG |  |  | 2.2 |
| IgG1 antibody comprising the VH and VL domains of scFv F081C09 (antibody, V domains shown, Whole IgG1; also called F0081C09) VH: QVQLVQSGAEVKKPGSSVRVSCKASGGSFSDYAIHWVRQAPGQGLEWMGGIIPIFGTANYAQKFQGRVTITADESTSTAYMELSSLRSEDTAVYYCAREAQYDDAFDIWGQRTMVTVSS VL: QSVLTQPPSVSAAPGQKVTISCSGSTSNIGNNYVSWYQQHPGKAPKLMIYDVSKRPSGVPDRFSGSKSGNSASLDISGLQSEDEADYYCAAWDDSLSEFLFGTGTKLTVLG |  | 0.09 |  |
| IgG1 antibody comprising the VH and VL domains of scFv F002D02 (antibody, V domains shown, IgG1) VH: EVQLVQSGAEVKKPGSSVKVSCKASGGTFSSYAISWVRQAPGQGLEWMGGIIPIFGTANYAQKFQGRVTITADESTSTAYMELSSLRSEDTAVYYCAREDIVGAVDGFDIWGRGTLVTVSS VL: QSVLTQPPSVSAAPGQKVTISCSGSTSNIGNNYVSWYQQHPGKAPKLMIYDVSKRPSGVPDRFSGSKSGNSASLDISGLQSEDEADYYCAAWDDSLSEFLFGTGTKLTVLG |  |  | 4.5 |
| IgG1 antibody comprising the VH and VL domains of scFv F003F09 (antibody, V domains shown, Whole IgG1) VH: EVQLVQSGAEVRKPGSSVKVSCKASGDTFNNFAISWVRQAPGHGLEWVGGIIPVFNTADYAQNFTGRVTISADKATKTVYMELRSLRYDDTAVYFCARTKIELDNDAFDIWGRGTTVTVSS VL: LPVLTQPPSASGTPGQRVTISCSGSTSNIGSNAVVWYQQLPGAAPKLLIYSNDQRPSGVPDRFSGSRSGTSASLAISGLQSEDEADYYCAAWDDSRDGPWVFGGGTKVTVLG |  | 2.4 |  |
| IgG1 antibody comprising the VH and VL domains of scFv F076G06 (antibody, V domains shown, IgG1) VH: QMQLVQSGAEVRKPGSSVKVSCKASGDTFNNFAISWVRQAPGHGLEWVGGIIPVFNTADYAQNFTGRVTISADKATKTVYMELRSLRYDDTAVYFCARTKIELDNDAFDIWGQGTMVTVSS VL: not shown |  |  | 1.7 |
| IgG1 antibody comprising the VH and VL domains of scFv F003A09 (antibody, V domains shown, Whole IgG1) VH: QVQLVQSGAEVKKAGSSVKVSCKASGDTFSNFAISWVRQAPGHGLEWVGGIIPVFNTADYAQNFTDRVTISADKATKTVYMELRSLRSDDTAVYFCARTKIELDNDAFDIWGQGTLVTVSS VL: not shown | 0.3 |  | 0.46 |
| IgG1 antibody comprising the VH and VL domains of scFv F076C06 (antibody, V domains shown, IgG1) VH: QVQLVQSGPEVKKPGSSVKVSCRASGGTFSTYAFSWVRQAPGQGLEWMGGIIPVFETPIYAQKLQGRLTITADTSTDTAYMELSNLRSGDTAVYYCAREWGDYYSSVSSGALHYWGRGTLVTVSS VL: QAVLTQPSSASGTPGQRVTISCSGSSSNIGNNAVNWYQQLPGTAPKLLIYNNNQWPSGVPDRFSGSKSGTSASLAVSGLQSEDEADYYCAAWDDSLNGYVFGTGTQLTVLS |  |  | 1.8 |
| IgG1 antibody comprising the VH and VL domains of scFv F003F01 (antibody, V domains shown, IgG1; The printed VL start (142) looks late against the printed VL CDR1 (159-171)) VH: EVQLVQSGAEVRKPASSVKVSCKTSGGSFNDYSFNWVRQAPGQGLEWMGSIIPVFDMADYGQNFQGRLTITADESTTTAYMELSDLTPMDTAIYYCARVAMVGATHFDIWGQGTLVTVSS VL: QSVLTQPPSASGTPGQRVTISCSGGSSNIGSNPVNWYQQVPGTAPKLLIYLSDQRPAGVPDRFSGSKSGTSASLAISGLQSEDEADYYCSTWDDSLNDPVVFGGGTKVTVLG | 0.2 |  | 0.13 |
